T1: CEA (carcinoembryonic antigen, Biodesign Intl., Saco, Me.) (UniProt P06731 35-685)
T1 construct: also called immobilized CEA
T1 sequence: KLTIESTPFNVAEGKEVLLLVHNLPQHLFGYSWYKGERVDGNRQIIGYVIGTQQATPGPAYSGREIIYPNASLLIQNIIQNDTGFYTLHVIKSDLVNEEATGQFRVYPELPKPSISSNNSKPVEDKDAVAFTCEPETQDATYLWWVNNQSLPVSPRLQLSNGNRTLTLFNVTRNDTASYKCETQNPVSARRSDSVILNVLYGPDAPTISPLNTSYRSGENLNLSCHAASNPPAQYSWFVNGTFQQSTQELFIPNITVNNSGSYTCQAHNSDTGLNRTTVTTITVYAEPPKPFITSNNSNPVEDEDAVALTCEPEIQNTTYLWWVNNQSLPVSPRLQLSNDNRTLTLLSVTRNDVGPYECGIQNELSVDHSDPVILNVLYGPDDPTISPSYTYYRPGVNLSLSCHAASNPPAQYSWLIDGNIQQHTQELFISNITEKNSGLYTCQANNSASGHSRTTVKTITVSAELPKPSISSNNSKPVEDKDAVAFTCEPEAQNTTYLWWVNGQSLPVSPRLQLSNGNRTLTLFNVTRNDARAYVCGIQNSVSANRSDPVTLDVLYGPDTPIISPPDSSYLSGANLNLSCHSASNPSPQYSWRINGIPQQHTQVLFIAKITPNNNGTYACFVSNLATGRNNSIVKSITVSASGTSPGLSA


Tests used:
[1] = biological target: T1, CEA (carcinoembryonic antigen, …); test: CEA-coated plate, binding curves at pH 6.5 and pH 7.4, bound BLA activity
[2] = biological target: T1, CEA (carcinoembryonic antigen, …); test: screen of library SW155
[3] = biological target: T1, CEA (carcinoembryonic antigen, …); test: screen of H3 site saturation mini-libraries for improved affinity

| Binder | binding result [3] | other results |
| --- | --- | --- |
| NA08.15 (CAB1.4) (scFv) QVQLQQSGAELVKSGGSVKLSCTASGFNIKDSYMHWVRQGPEQGLEWIGWIDPENGDTEYAPKFQGKATFTTDTSSNTAYLQLSSLTSEDTAVYYCNEGTPTGPYYFDYWGQGTTVTVSSGGGGSGGGGSGGGGSENVLTQSPAIVSASPGEKVTITCSASSSVSYMHWFQQKPGTSPKLVIYDTSNLASGVPARFSGSGSGTSYSLTISRMEAEDAATYYCQQRDSYPLTFGAGTKLELKRAATPVSEKQLAEVVANTITPLMKAQSVPGMAVAVIYQGKPHYYTFGKADIAANKPVTPQTLFELGSISKTFTGVLGGDAIARGEISLDDAVTRYWPQLTGKQWQGIRMLDLATYTAGGLPLQVPDEVTDNASLLRFYQNWQPQWKPGTTRLYANASIGLFGALAVKPSGMPYEQAMTTRVLKPLKLDHTWINVPKAEEAHYAWGYRDGKAVRVSPGMLDAQAYGVKTNVQDMANWVMANMAPENVADASLKQGIALAQSRYWRIGSMYQGLGWEMLNWPVEANTVVETSFGNVALAPLPVAEVNPPAPPVKASWVHKTGSTGGFGSYVAFIPEKQIGIVMLANTSYPNPARVEAAYHILEALQ | – | binding result [1]: binds |
| CAB1.7 (clone pSW155.17) (scFv, scFv-BLA fusion) QVQLQQSGAELVKSGGSVKLSCTASGFNIKDSYMHWVRQGPEQGLEWIGWIDPENGDTEYAPKFQGKATFTTDTSSNTAYLQLSSLTSEDTAVYYCNEGLPLGAIYNDYWGQGTTVTVSSGGGGSGGGGSGGGGSENVLTQSPAIVSASPGEKVTITCSASSAVYAMHWFQQKPGTSPKLVIYDTSNLASGVPARFSGSGSGTSYSLTISRMEAEDAATYYCQQRDSYPLTFGAGTKLELDRAATPVSEKQLAEVVANTITPLMKAQSVPGMAVAVIYQGKPHYYTFGKADIAANKPVTPQTLFELGSISKTFTGVLGGDAIARGEISLDDAVTRYWPQLTGKQWQGIRMLDLATYTAGGLPLQVPDEVTDNASLLRFYQNWQPQWKPGTTRLYANASIGLFGALAVKPSGMPYEQAMTTRVLKPLKLDHTWINVPKAEEAHYAWGYRDGKAVRVSPGMLDAQAYGVKTNVQDMANWVMANMAPENVADASLKQGIALAQSRYWRIGSMYQGLGWEMLNWPVEANTVVETSFGNVALAPLPVAEVNPPAPPVKASWVHKTGSTGGFGSYVAFIPEKQIGIVMLANTSYPNPARVEAAYHILEALQ | – | binding result [2]: binds |
| clone pSW129.5 (scFv) QVQLQQSGAELVKSGGSVKLSCTASGFNIKDSYMHWVRQGPEQGLEWIGWIDPENGDTEYAPKFQGKATFTTDTSSNTAYLQLSSLTSEDTAVYYCNEGLPLGPYYFDYWGQGTTVTVSSGGGGSGGGGSGGGGSENVLTQSPAIVSASPGEKVTITCSASSSVSYMHWFQQKPGTSPKLVIYDTSNLASGVPARFSGSGSGTSYSLTISRMEAEDAATYYCQQRDSYPLTFGAGTKLELKRAATPVSEKQLAEVVANTITPLMKAQSVPGMAVAVIYQGKPHYYTFGKADIAANKPVTPQTLFELGSISKTFTGVLGGDAIARGEISLDDAVTRYWPQLTGKQWQGIRMLDLATYTAGGLPLQVPDEVTDNASLLRFYQNWQPQWKPGTTRLYANASIGLFGALAVKPSGMPYEQAMTTRVLKPLKLDHTWINVPKAEEAHYAWGYRDGKAVRVSPGMLDAQAYGVKTNVQDMANWVMANMAPENVADASLKQGIALAQSRYWRIGSMYQGLGWEMLNWPVEANTVVETSFGNVALAPLPVAEVNPPAPPVKASWVHKTGSTGGFGSYVAFIPEKQIGIVMLANTSYPNPARVEAAYHILEALQ | binds | – |
| clone pSW134.1 (scFv) QVQLQQSGAELVKSGGSVKLSCTASGFNIKDSYMHWVRQGPEQGLEWIGWIDPENGDTEYAPKFQGKATFTTDTSSNTAYLQLSSLTSEDTAVYYCNEGLPTGPYYNDYWGQGTTVTVSSGGGGSGGGGSGGGGSENVLTQSPAIVSASPGEKVTITCSASSSVSYMHWFQQKPGTSPKLVIYDTSNLASGVPARFSGSGSGTSYSLTISRMEAEDAATYYCQQRDSYPLTFGAGTKLELKRAATPVSEKQLAEVVANTITPLMKAQSVPGMAVAVIYQGKPHYYTFGKADIAANKPVTPQTLFELGSISKTFTGVLGGDAIARGEISLDDAVTRYWPQLTGKQWQGIRMLDLATYTAGGLPLQVPDEVTDNASLLRFYQNWQPQWKPGTTRLYANASIGLFGALAVKPSGMPYEQAMTTRVLKPLKLDHTWINVPKAEEAHYAWGYRDGKAVRVSPGMLDAQAYGVKTNVQDMANWVMANMAPENVADASLKQGIALAQSRYWRIGSMYQGLGWEMLNWPVEANTVVETSFGNVALAPLPVAEVNPPAPPVKASWVHKTGSTGGFGSYVAFIPEKQIGIVMLANTSYPNPARVEAAYHILEALQ | binds | – |

Source: patent US20110160440A1 (GENENCOR INTERNATIONAL, published 2011)
